Laboratory results taken from publication doi:10.1101/2024.08.23.608024.

T1: GbpC (glucan-binding protein C), extracellular fragment (Streptococcus mutans, UniProt Q8DTF1 111-522)
T1 sequence: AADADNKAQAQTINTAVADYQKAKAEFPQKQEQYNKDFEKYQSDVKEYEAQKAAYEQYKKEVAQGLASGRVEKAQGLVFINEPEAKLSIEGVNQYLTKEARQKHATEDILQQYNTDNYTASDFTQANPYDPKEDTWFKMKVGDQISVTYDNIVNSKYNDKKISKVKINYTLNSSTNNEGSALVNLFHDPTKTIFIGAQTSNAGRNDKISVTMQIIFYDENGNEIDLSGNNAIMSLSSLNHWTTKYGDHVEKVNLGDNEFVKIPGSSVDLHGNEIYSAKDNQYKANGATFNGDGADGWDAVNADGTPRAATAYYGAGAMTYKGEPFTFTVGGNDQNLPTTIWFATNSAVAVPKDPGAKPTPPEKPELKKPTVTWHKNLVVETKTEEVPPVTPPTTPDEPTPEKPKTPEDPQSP

B1: A30 (ssDNA)
DNA: AGATACCAATACGCTGCCTTCTTGAAAAAGGGTAGCGCAGGCCGCTAATGACATAACTGCCACTGGTAACGACATC
B2: A39 (flanked) (ssDNA)
DNA: AGATACCAATACGCTGCCTAGCCCCTACCCTGTTGCTCCCCCTCGCCCCTCTCACCCCGCCACTGGTAACGACATC
B3: A65 (ssDNA)
DNA: AGATACCAATACGCTGCCTTTCCAATTACGCCATGCATCACCCCTAAAATCTGAATACGCCACTGGTAACGACATC
B4: A96 (flanked) (ssDNA)
DNA: AGATACCAATACGCTGCCCCGCCGGTCCCGAGCTACAACACTTTACGCCCCCCTCCCCGCCACTGGTAACGACATC

How the values were obtained:
[1] = target: T1, GbpC (glucan-binding protein C), …; assay: AlphaScreen
[2] = target: T1, GbpC (glucan-binding protein C), …; assay: MST
[3] = target: T1, GbpC (glucan-binding protein C), …; assay: BLI

Binder | binding result [1] | Kd [2] | Kd [3]
B1 | binds | – | –
CCGCCGGTCCCGAGCTACAACACTTTACGCCCCCCTCCC (ssDNA) [A96 truncated] | – | 66.9 µM | –
B2 | – | – | 5.7 µM
B3 | binds | – | –
TAGCCCCTACCCTGTTGCTCCCCCTCGCCCCTCTCACCCC (ssDNA) [A39 truncated] | – | 19.6 µM | –
B4 | – | 8.5 µM | 0.4 µM
